Results taken from patent US20180291107A1 (Eli Lilly, published 2018).

Columns and labels:
mouse PD-L1 = molecular target: T1, mouse PD-L1 (mouse, UniProt Q9EP73 19-238, limits assumed); assay: not described
T1 construct: also called murine target protein (of the PD-L1 antibody); murine PD-L1

[1] = molecular target: T2, Soluble human PD-L1-Fc fusion protein (human, UniProt Q9NZQ7 19-239, limits assumed); assay: SPR (Biacore T200), antibody immobilised, PD-L1-Fc as analyte, 37 C, 1:1 model
T2 construct: not shown: Fc part
T2 sequence (Q9NZQ7 19-239 limits assumed): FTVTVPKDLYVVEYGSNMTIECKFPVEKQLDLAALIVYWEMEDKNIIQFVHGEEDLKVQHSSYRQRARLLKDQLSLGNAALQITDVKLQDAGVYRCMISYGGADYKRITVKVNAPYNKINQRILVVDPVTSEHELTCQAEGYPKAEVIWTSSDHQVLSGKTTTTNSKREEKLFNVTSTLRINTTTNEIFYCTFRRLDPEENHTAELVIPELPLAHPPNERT
Description: The kinetics and equilibrium dissociation constant (KD) for human PD-L1 is determined for anti-PD-L1 antibodies of the present invention using surface plasmon resonance (Biacore).
Immobilization of anti-PD-L1 antibodies of the present invention as ligand on to sensor chip surface is performed at 25° C. Soluble human PD-L1-Fc fusion protein is injected as analyte at concentrations ranging from 0.0123 nM-9 nM. The analysis is performed at 37° C. The contact time for each sample is 180 sec at 30 μl/min. The dissociation time was 240-1500 seconds. The immobilized surface is regenerated for 18 seconds with 0.95 M NaCl/25 mM NaOH at […], and then stabilized for 30 seconds. Binding kinetics are analyzed using the Biacore T200 Evaluation software (Version 3.0). Data are referenced to a blank flow cell, and the data are fit to a 1:1 binding model.

mouse CSF-1R = molecular target: T3, mouse CSF-1R (mouse, UniProt P09581 20-511, limits assumed); assay: not described
T3 construct: also called murine target protein (of the CSF-1R antibody); murine CSF-1R
T3 sequence (looked up): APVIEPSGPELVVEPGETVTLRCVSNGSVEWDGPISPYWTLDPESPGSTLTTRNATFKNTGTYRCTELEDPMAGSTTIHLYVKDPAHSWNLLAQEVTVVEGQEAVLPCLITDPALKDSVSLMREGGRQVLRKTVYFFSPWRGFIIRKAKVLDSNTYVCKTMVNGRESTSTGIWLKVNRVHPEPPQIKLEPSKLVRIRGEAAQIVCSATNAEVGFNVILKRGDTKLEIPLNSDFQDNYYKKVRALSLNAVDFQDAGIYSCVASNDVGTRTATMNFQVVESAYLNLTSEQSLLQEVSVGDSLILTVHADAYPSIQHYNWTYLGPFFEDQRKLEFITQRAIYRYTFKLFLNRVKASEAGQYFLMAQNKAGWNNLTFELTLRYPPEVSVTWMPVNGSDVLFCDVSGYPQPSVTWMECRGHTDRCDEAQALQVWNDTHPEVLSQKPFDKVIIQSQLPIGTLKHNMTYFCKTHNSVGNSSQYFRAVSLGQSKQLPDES

T1 sequence (Q9EP73 19-238 limits assumed): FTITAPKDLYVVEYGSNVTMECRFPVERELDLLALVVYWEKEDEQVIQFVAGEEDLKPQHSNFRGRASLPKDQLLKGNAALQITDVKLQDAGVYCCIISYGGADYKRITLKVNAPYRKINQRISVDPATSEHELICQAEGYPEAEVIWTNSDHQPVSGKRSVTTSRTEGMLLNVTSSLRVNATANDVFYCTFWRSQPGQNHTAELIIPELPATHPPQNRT

B1: Antibody A (antibody, human IgG1, lambda, V domains shown)
VH: QVQLVQSGAEVKKPGSSVKVSCKASGGTFSSYAISWVRQAPGQGLEWMGGIIPIFGTANYAQKFQGRVTITADKSTSTAYMELSSLRSEDTAVYYCARSPDYSPYYYYGMDVWGQGTTVTVSS
VL: QSVLTQPPSASGTPGQRVTISCSGSSSNIGSNTVNWYQQLPGTAPKLLIYGNSNRPSGVPDRFSGSKSGTSASLAISGLQSEDEADYYCQSYDSSLSGSVFGGGIKLTVLG
notes: also called Anti-PD-L1 antibody
Which results are given for B1?
binding result (mouse PD-L1): no binding; Kd [1]: 0.082 nM

B2: CS7 (antibody, V domains shown)
VH: DRQMVESGGGLVRPGRSLKLSCAASGFTFSNYYMAWVRLAPSKGLEWVASISPSGDNTYYPDSVQGRFTISRDNAETTLYLQVDSLRSEDTATYYCATRHYGYSFFDYWGQGVLVTVSS
VL: DTVLTQSPALAVSPGERVTISCRASESVSTLIHWYQQKPGQQPKLLIFLASHLESGVPARFSGSGSGTDFTFTIDPVEADDTATYYCQQSWNDPPTFGGGTKLELK
notes: Rat antibody generated from a hybridoma; also called IMC-CS7; rat anti-mouse CSF-1R antibody
Does B2 bind (mouse CSF-1R)?
Result: binds

B3: Antibody 1 (antibody, human IgG1, kappa, V domains shown)
VH: QDQLVESGGGVVQPGRSLRLSCAASGFTFSSYGMHWVRQAPGEGLEWVAVIWYDGSNKYYADSVKGRFTISRDNSKNTLYLQMNSLRAEDTAVYYCARGDYEVDYGMDVWGQGTTVTVAS
VL: AIQLTQSPSSLSASVGDRVTITCRASQGISNALAWYQQKPGKAPKLLIYDASSLESGVPSRFSGSGSGTDFTLTISSLQPEDFATYYCQQFNSYPWTFGQGTKVEIKR
notes: also called Anti-CSF-1R antibody
Does B3 bind (mouse CSF-1R)?
Result: no binding
